From patent US20080193444A1

Experiments:
Assay in all cases: cell-based or functional assay
[1] = target: αv integrin subunit (rat hippocampus) (rat)
[2] = target: β1 integrin (human) (UniProt P05556)
[3] = target: α2 integrin (human) (UniProt P17301)
[4] = target: α6 integrin (human) (UniProt P23229)
[5] = target: α2β1 integrin (human) (UniProt P17301)
[6] = target: α5 integrin (human) (UniProt P08648)
[7] = target: αvβ1 integrin (human) (UniProt P06756)
[8] = target: α1 integrin (human) (UniProt P56199)
[9] = target: α9 integrin (human) (UniProt Q13797)

Sequence of UniProt P08648 (P08648 42-1049): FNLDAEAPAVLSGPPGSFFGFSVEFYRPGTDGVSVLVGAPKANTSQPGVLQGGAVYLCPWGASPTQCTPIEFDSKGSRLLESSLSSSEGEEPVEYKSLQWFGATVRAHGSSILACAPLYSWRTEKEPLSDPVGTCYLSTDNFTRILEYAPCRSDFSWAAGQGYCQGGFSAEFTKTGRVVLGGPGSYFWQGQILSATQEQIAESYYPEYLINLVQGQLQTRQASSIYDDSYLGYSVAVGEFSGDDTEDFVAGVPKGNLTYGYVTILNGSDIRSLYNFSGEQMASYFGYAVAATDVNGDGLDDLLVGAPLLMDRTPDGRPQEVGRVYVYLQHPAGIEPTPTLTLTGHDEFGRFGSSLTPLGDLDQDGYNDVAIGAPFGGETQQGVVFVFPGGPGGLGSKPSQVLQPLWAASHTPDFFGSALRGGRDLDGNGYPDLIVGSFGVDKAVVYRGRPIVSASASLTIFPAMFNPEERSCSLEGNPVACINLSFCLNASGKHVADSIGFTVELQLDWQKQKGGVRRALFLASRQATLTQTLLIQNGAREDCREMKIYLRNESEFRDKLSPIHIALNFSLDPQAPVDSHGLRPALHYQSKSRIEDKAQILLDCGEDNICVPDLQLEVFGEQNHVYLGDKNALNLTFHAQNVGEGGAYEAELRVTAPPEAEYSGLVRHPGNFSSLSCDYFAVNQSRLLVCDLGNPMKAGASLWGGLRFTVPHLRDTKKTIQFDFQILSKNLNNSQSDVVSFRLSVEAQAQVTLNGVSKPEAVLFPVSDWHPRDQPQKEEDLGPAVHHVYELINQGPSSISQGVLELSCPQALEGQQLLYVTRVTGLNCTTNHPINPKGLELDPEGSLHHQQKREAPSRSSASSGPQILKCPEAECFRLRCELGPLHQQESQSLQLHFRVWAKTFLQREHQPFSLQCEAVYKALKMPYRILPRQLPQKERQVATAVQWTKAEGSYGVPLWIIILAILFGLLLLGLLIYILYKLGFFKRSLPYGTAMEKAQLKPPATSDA
Sequence of UniProt P05556 (P05556 21-798): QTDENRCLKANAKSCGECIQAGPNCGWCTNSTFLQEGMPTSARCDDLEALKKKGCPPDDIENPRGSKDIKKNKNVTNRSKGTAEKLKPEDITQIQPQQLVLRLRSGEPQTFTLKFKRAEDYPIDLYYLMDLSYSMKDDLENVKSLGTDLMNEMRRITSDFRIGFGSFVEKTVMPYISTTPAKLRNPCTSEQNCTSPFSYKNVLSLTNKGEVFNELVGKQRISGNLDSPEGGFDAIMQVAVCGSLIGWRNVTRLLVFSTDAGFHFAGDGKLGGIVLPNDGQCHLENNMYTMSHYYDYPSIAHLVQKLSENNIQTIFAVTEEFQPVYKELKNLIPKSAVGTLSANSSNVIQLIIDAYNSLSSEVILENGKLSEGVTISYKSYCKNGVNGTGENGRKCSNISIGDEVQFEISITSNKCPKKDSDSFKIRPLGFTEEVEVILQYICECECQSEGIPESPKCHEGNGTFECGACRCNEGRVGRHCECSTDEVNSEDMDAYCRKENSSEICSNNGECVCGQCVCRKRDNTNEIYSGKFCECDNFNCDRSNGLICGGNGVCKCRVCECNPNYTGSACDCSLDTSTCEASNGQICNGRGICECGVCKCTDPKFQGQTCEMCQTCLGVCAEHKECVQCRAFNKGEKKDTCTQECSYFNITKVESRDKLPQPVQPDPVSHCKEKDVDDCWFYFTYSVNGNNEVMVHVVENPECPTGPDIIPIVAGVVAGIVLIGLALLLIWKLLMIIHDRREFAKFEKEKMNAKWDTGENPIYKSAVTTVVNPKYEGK
Sequence of UniProt P23229 (P23229 24-1130): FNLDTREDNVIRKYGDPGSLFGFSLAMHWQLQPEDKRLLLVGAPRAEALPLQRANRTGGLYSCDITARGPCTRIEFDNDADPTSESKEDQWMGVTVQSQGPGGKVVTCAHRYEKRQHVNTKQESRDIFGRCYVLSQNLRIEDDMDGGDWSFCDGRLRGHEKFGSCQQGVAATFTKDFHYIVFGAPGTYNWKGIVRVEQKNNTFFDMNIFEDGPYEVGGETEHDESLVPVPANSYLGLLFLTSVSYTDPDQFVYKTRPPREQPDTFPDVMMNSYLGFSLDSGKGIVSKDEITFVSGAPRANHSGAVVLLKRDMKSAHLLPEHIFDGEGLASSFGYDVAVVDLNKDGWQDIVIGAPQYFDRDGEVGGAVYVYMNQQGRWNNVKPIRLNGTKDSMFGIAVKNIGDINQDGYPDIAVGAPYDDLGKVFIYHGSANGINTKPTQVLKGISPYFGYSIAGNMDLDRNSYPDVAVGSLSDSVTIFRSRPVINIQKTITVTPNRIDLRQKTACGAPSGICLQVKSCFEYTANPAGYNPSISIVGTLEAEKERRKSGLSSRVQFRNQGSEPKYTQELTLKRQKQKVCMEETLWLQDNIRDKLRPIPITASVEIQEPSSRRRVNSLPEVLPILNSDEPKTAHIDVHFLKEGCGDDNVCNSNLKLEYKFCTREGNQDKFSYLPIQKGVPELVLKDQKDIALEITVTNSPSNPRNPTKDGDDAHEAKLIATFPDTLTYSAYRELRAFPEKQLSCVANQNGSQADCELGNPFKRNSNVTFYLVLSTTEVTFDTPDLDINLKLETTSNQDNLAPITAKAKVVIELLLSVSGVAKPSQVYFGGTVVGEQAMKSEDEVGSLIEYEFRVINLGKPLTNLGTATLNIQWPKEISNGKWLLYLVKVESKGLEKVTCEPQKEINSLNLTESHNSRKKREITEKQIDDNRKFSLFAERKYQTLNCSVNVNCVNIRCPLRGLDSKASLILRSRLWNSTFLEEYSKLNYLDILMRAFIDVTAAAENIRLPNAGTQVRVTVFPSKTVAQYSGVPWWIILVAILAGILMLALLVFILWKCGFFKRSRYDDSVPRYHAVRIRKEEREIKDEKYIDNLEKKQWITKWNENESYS
Sequence of UniProt P56199 (P56199 29-1179): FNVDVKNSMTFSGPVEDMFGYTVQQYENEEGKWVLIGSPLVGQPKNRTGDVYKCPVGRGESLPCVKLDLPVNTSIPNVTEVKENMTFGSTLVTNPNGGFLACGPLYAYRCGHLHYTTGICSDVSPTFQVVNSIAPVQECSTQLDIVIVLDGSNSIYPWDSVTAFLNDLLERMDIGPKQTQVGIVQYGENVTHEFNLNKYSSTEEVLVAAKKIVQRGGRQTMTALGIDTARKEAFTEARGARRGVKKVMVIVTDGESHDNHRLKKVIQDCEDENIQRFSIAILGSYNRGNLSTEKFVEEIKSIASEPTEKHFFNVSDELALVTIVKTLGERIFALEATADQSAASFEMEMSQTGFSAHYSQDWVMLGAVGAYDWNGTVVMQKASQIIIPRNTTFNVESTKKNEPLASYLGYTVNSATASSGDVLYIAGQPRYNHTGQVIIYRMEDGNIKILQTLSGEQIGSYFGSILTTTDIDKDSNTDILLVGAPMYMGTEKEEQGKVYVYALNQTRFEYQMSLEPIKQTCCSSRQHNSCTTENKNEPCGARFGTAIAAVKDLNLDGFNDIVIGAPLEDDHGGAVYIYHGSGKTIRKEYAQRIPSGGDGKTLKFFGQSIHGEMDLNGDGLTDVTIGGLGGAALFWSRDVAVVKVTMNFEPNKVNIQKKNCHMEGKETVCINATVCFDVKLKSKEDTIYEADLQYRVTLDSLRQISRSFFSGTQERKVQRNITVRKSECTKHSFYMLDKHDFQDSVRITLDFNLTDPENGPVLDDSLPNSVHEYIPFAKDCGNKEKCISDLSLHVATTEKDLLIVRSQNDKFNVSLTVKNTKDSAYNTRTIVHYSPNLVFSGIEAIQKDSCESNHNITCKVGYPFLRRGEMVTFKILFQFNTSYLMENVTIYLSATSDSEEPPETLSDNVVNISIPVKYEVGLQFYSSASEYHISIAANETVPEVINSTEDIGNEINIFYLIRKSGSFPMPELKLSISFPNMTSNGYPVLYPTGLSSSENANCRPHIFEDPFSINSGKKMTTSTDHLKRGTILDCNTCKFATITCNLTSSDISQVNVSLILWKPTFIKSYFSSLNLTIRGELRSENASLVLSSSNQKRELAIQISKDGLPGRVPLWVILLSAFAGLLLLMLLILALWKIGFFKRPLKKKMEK
Sequence of UniProt P06756 (P06756 31-1048, chain 1 of 2): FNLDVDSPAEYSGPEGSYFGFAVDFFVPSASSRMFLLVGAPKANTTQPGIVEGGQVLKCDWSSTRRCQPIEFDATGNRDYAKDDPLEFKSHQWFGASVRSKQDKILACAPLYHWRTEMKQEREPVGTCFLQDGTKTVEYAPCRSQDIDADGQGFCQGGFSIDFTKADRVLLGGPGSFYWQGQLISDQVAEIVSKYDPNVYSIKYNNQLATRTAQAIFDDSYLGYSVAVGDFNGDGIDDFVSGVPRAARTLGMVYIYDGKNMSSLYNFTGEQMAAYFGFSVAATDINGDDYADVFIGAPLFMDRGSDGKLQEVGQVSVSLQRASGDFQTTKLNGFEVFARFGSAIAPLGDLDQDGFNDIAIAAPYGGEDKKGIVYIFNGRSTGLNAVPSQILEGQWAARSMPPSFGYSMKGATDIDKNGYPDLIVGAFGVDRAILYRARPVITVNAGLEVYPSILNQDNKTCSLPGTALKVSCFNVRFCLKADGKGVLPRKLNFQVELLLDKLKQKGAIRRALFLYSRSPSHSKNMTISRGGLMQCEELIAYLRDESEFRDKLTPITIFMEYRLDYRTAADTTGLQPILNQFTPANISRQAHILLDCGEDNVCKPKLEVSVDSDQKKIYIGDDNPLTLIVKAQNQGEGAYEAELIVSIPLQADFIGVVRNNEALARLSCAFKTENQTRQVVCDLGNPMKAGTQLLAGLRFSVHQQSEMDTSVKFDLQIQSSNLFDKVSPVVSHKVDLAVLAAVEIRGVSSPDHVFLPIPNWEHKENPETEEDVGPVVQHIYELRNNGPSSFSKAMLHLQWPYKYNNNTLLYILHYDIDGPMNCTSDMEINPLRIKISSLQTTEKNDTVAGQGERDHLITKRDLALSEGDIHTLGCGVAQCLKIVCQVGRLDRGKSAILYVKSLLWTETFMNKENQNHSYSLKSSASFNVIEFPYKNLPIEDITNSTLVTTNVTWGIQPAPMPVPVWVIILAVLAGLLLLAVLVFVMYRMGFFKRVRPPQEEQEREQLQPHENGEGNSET
Sequence of UniProt P06756 (P05556 21-798, chain 2 of 2, further chain): as the sequence (P05556 21-798) above

17E6 (antibody)
LTP in the presence of Aβ plus antibody, CA1 in vivo (% baseline) [1]: 135%
LTP in the presence of Aβ plus antibody, dentate gyrus in vitro (% baseline) [1]: 153%

AIIB2 (antibody)
Maximal inhibition of toxicity (%) [2]: 100%

Gi9 (antibody)
Maximal inhibition of toxicity (%) [3]: 100%

GoH3 (antibody)
Maximal inhibition of toxicity (%) [4]: 40%

Laminin (ligand)
Maximal inhibition of toxicity (%) [5]: 20%

P1D6 (antibody)
Maximal inhibition of toxicity (%) [6]: 5%

SAM1 (antibody)
Maximal inhibition of toxicity (%) [6]: 5%

Superfibronectin (ligand)
Maximal inhibition of toxicity (%) [7]: 100%
LTP in the presence of Aβ plus superfibronectin, dentate gyrus in vitro (% baseline) [1]: 147%

TS2/7 (antibody)
Maximal inhibition of toxicity (%) [8]: 5%

TS2/16 (activating) (antibody)
Maximal inhibition of toxicity (%) [2]: 0%

Y9A2 (antibody)
Maximal inhibition of toxicity (%) [9]: 0%

echistatin (from UniProt P17347 131-179) (peptide)
LTP in the presence of Aβ plus echistatin, dentate gyrus in vitro (% baseline) [1]: 143%

B1: MAB1998 (antibody, from another filing, V domains shown)
VH: QVQLKESGPGLVAPSQSLSITCTVSGFSLTNYGIHWVRQPPGKGLEWLGVIWARGFTNYNSALMSRLIITKDNSQSQVFLKMNSLQPDDSATYFCARANDGVYYAMDYWGQGTSVTVSS
VL: QFVLTQSPAFLSASPGEKVTMTCSANSSVNYIHWYQQKSGTSPKKWIYDTSKLASGVPVRFSGSGSGTSYSLTISSMETEDAATYYCQQWTTNPLTFGAGTRVELK
Maximal inhibition of toxicity (%) [3]: 25%
